In patent US10472401B2, “Peptides and combination of peptides for use in immunotherapy against ovarian cancer and other cancers” (immatics biotechnologies GmbH, priority 2015, dated 2019):

target: HLA-A*02:01 (Homo sapiens, UniProt P04439, D140Y/D185E/D98H/E176V/E277Q/G131W/G231S/I119V/I121R/I166T/I218V/L300P/L318F/N151K/N90K/P208A/P217A/Q86G/Q94H/R138H/R169H/T345S); assay: MHC binding assay (UV-ligand exchange, ELISA of stabilized MHC complexes); settings: MHC class I binding score; binding to HLA-A*02:01 ranged by peptide exchange yield (UV-ligand exchange, ELISA)
Summary of the method: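 Peptide-MHC complexes made by UV-ligand exchange, cleaving a UV-sensitive placeholder peptide and replacing it with the test peptide. Exchange yield measured by ELISA: streptavidin-captured monomers (diluted 100-fold, 1 h, 37 °C) detected with HRP anti-β2m and TMB, absorbance at 450 nm.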

Peptide exchange	Substance
″+++″ (≥50% = +++)	241 (SLVEVNPAYSV; listed as Homo sapiens) [compound 241]
″++″ (≥20% = ++)	242 (AIAYILQGV; listed as Homo sapiens) [compound 242]
″+++″ (≥50% = +++)	243 (LLLNELPSV; listed as Homo sapiens) [compound 243]
″+++″ (≥50% = +++)	244 (SLFGGTEITI; listed as Homo sapiens) [compound 244]
″+++″ (≥50% = +++)	245 (SMIDDLLGV; listed as Homo sapiens) [compound 245]
″+++″ (≥50% = +++)	246 (LLWEVVSQL; listed as Homo sapiens) [compound 246]
″+++″ (≥50% = +++)	248 (FLFPNQYVDV; listed as Homo sapiens) [compound 248]
″+++″ (≥50% = +++)	249 (LLDGFLVNV; listed as Homo sapiens) [compound 249]
″+++″ (≥50% = +++)	250 (ALSEEGLLVYL; listed as Homo sapiens) [compound 250]
″++″ (≥20% = ++)	251 (ALYTGFSILV; listed as Homo sapiens) [compound 251]
″+++″ (≥50% = +++)	252 (LLIGTDVSL; listed as Homo sapiens) [compound 252]
″++″ (≥20% = ++)	253 (GLDAATATV; listed as Homo sapiens) [compound 253]
″+++″ (≥50% = +++)	254 (TLLAFIMEL; listed as Homo sapiens) [compound 254]
″+++″ (≥50% = +++)	255 (VLASYNLTV; listed as Homo sapiens) [compound 255]
″+++″ (≥50% = +++)	256 (FLPPEHTIVYI; listed as Homo sapiens) [compound 256]
″+++″ (≥50% = +++)	257 (SIFSAFLSV; listed as Homo sapiens) [compound 257]
″++″ (≥20% = ++)	258 (ELAERVPAI; listed as Homo sapiens) [compound 258]
″++″ (≥20% = ++)	261 (YVLEFLEEI; listed as Homo sapiens) [compound 261]
″+++″ (≥50% = +++)	262 (LLWGDLIWL; listed as Homo sapiens) [compound 262]
″+++″ (≥50% = +++)	263 (LLVSNLDFGV; listed as Homo sapiens) [compound 263]
″+++″ (≥50% = +++)	264 (SLQEQLHSV; listed as Homo sapiens) [compound 264]
″++″ (≥20% = ++)	265 (LLFGGTKTV; listed as Homo sapiens) [compound 265]
″+++″ (≥50% = +++)	266 (KITDTLIHL; listed as Homo sapiens) [compound 266]
″+++″ (≥50% = +++)	267 (ALQDFLLSV; listed as Homo sapiens) [compound 267]
″++″ (≥20% = ++)	269 (RVLEVGALQAV; listed as Homo sapiens) [compound 269]
″++″ (≥20% = ++)	270 (LLLDEEGTFSL; listed as Homo sapiens) [compound 270]

Peptide exchange	Substance
″+++″ (≥50% = +++)	271 (LVYPLELYPA; listed as Homo sapiens) [compound 271]
″+++″ (≥50% = +++)	272 (ALGNTVPAV; listed as Homo sapiens) [compound 272]
″++″ (≥20% = ++)	273 (NLFQSVREV; listed as Homo sapiens) [compound 273]
″++″ (≥20% = ++)	274 (SLLFSLFEA; listed as Homo sapiens) [compound 274]
″++″ (≥20% = ++)	275 (YLVYILNEL; listed as Homo sapiens) [compound 275]
″+++″ (≥50% = +++)	276 (ALFTFSPLTV; listed as Homo sapiens) [compound 276]
″++″ (≥20% = ++)	277 (LLPPLESLATV; listed as Homo sapiens) [compound 277]
″++″ (≥20% = ++)	278 (QLLDVVLTI; listed as Homo sapiens) [compound 278]
″++″ (≥20% = ++)	279 (ALWGGTQPLL; listed as Homo sapiens) [compound 279]
″+++″ (≥50% = +++)	280 (VLPDPEVLEAV; listed as Homo sapiens) [compound 280]
″+++″ (≥50% = +++)	281 (ILRESTEEL; listed as Homo sapiens) [compound 281]
″+++″ (≥50% = +++)	282 (LLADVVPTT; listed as Homo sapiens) [compound 282]
″+++″ (≥50% = +++)	284 (ILLSQTTGV; listed as Homo sapiens) [compound 284]
″+++″ (≥50% = +++)	285 (QLLHVGVTV; listed as Homo sapiens) [compound 285]
″+++″ (≥50% = +++)	286 (YLFPGIPEL; listed as Homo sapiens) [compound 286]
″+++″ (≥50% = +++)	287 (FLNEFFLNV; listed as Homo sapiens) [compound 287]
″+++″ (≥50% = +++)	288 (NLINEINGV; listed as Homo sapiens) [compound 288]
″++++″ (≥75% = ++++)	289 (VLLEIEDLQV; listed as Homo sapiens) [compound 289]
″+++″ (≥50% = +++)	295 (VLDRESPNV; listed as Homo sapiens) [compound 295]
″+++″ (≥50% = +++)	296 (FMEGAIIYV; listed as Homo sapiens) [compound 296]
″+++″ (≥50% = +++)	297 (VLADIELAQA; listed as Homo sapiens) [compound 297]
″+++″ (≥50% = +++)	298 (VMITKLVEV; listed as Homo sapiens) [compound 298]
″+++″ (≥50% = +++)	299 (YLLETSGNL; listed as Homo sapiens) [compound 299]
″+++″ (≥50% = +++)	300 (ALLGQTFSL; listed as Homo sapiens) [compound 300]
″+++″ (≥50% = +++)	301 (FLVEDLVDSL; listed as Homo sapiens) [compound 301]
″+++″ (≥50% = +++)	302 (ALLQEGEVYSA; listed as Homo sapiens) [compound 302]

Peptide exchange	Substance
″++++″ (≥75% = ++++)	303 (AILPQLFMV; listed as Homo sapiens) [compound 303]
″+++″ (≥50% = +++)	304 (MTLGQIYYL; listed as Homo sapiens) [compound 304]
″++++″ (≥75% = ++++)	305 (SIANFSEFYV; listed as Homo sapiens) [compound 305]
″+++″ (≥50% = +++)	306 (ALVNVQIPL; listed as Homo sapiens) [compound 306]
″+++″ (≥50% = +++)	307 (ALPVSLPQI; listed as Homo sapiens) [compound 307]
″+++″ (≥50% = +++)	308 (SQYSGQLHEV; listed as Homo sapiens) [compound 308]
″+++″ (≥50% = +++)	309 (GLFDGVPTTA; listed as Homo sapiens) [compound 309]
″++++″ (≥75% = ++++)	310 (FLVDTPLARA; listed as Homo sapiens) [compound 310]
″+++″ (≥50% = +++)	311 (RLYTGMHTV; listed as Homo sapiens) [compound 311]
″+++″ (≥50% = +++)	312 (IISDLTIAL; listed as Homo sapiens) [compound 312]
″+++″ (≥50% = +++)	313 (VLFDDELLMV; listed as Homo sapiens) [compound 313]
″+++″ (≥50% = +++)	314 (ALIAEGIALV; listed as Homo sapiens) [compound 314]
″+++″ (≥50% = +++)	315 (YLQDVVEQA; listed as Homo sapiens) [compound 315]
″+++″ (≥50% = +++)	316 (ILLERLWYV; listed as Homo sapiens) [compound 316]
″+++″ (≥50% = +++)	317 (SLAALVVHV; listed as Homo sapiens) [compound 317]
″++″ (≥20% = ++)	318 (GLINTGVLSV; listed as Homo sapiens) [compound 318]
″++++″ (≥75% = ++++)	320 (KMFEFVEPLL; listed as Homo sapiens) [compound 320]
″++++″ (≥75% = ++++)	321 (GLFEDVTQPGILL; listed as Homo sapiens) [compound 321]
″+++″ (≥50% = +++)	322 (TLMTSLPAL; listed as Homo sapiens) [compound 322]
″+++″ (≥50% = +++)	324 (FLYDEIEAEV; listed as Homo sapiens) [compound 324]
″+++″ (≥50% = +++)	325 (FIMPATVADATAV; listed as Homo sapiens) [compound 325]
″+++″ (≥50% = +++)	326 (FLPEALDFV; listed as Homo sapiens) [compound 326]
″+++″ (≥50% = +++)	327 (GLAPFTEGISFV; listed as Homo sapiens) [compound 327]
″+++″ (≥50% = +++)	328 (ALNDQVFEI; listed as Homo sapiens) [compound 328]
″++++″ (≥75% = ++++)	329 (FLVTLNNVEV; listed as Homo sapiens) [compound 329]
